We go through two molecules from patent US20260028422A1 (CONCEPT TO MEDICINE BIOTECH, published 2026).

The EC50 is the concentration giving half of the maximal effect. Usually IC50 stands for the midpoint of a concentration-inhibition curve. A high value points to weaker potency in that assay.

Experiment [1] addresses T1, human MerTK expressed on cells (human, UniProt Q12866 21-999).
T1 construct: whole, on cells; also called CHO-K1-hMerTK; CHO-K1-MerTK
T1 sequence (looked up): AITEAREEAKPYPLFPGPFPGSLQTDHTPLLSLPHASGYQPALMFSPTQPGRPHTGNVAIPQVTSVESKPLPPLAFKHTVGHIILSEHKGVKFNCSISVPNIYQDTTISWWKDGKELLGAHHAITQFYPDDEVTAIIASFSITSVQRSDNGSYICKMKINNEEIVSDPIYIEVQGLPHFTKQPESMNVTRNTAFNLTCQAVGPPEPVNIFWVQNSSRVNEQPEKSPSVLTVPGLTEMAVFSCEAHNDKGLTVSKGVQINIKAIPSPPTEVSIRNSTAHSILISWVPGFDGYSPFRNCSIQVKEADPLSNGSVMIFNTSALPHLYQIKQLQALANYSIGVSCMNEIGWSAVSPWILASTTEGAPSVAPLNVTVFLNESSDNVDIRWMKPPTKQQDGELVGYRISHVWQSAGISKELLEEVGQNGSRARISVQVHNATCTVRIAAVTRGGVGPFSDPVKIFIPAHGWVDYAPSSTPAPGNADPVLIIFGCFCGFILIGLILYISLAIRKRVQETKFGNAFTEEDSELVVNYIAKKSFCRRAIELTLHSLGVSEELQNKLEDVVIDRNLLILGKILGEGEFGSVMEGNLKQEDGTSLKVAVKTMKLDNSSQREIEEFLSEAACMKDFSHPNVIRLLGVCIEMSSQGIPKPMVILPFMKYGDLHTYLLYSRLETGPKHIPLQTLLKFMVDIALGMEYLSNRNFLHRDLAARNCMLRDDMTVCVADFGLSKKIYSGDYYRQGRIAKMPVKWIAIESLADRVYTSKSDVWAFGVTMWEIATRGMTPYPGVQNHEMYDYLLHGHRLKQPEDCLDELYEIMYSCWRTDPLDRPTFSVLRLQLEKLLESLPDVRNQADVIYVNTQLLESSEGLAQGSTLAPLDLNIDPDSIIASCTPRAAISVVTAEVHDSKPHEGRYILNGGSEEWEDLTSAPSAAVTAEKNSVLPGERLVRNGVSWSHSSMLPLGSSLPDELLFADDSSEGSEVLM
Put plainly: FACS on SK-MEL-5 cells expressing human MerTK, geometric mean. As to the method: (§1) To evaluate the binding properties on MerTK expressed on cells, the chimeric monoclonal antibodies were analyzed for their binding to human melanoma cell line SK-MEL-5 expressing MerTK by FACS analysis. Briefly, SK-MEL-5 cells were firstly incubated with 5-fold serially diluted chimeric mAbs starting at 20 nM at 4° C. for 30 mins. After washing by FACS buffer, the PE conjugated anti-human IgG secondary antibody was incubated with the cell-antibody complex in the wells at 4° C. for 30 mins to detect the antibodies those bound to the cells. The MFI of PE was evaluated by QuantAnalyzer 16.

Experiment [2] deals with T2, Human MerTK-mouse Fc fusion protein (human, UniProt Q12866 21-499, limits assumed).
T2 construct: also called hMerTK; Human MerTK-mouse Fe fusion protein
T2 sequence (looked up): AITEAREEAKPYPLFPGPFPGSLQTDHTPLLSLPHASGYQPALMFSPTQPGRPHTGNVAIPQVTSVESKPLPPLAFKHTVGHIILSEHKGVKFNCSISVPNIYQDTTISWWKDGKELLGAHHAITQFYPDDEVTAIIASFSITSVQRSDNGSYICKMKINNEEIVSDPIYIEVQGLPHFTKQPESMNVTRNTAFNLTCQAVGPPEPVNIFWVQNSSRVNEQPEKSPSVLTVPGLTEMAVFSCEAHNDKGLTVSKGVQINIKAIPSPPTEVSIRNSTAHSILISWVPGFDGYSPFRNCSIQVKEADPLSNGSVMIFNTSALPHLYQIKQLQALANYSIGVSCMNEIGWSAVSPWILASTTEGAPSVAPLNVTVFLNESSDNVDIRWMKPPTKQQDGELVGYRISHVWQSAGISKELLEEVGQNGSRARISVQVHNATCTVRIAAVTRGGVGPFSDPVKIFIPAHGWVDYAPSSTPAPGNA
Put plainly: FACS blocking: binding of human MerTK-mouse Fc to Jurkat cells overexpressing human Gas6, MFI (AF488). As to the method:
To evaluate the blocking effects of anti-hMerTK mAbs on hMerTK binding to its ligand hGas6, a receptor blocking assay was set-up. Briefly, Jurkat cells engineered to overexpress human Gas6 were added to the 96-well microplates at a density of 5×10⁴ cells per well. Human MerTK-mouse Fe fusion protein (50 μL/well, […]) and the MerTK chimeric antibodies with a 3-fold serial dilution starting from 120 nM at a volume of 50 μL were added to the 96-well plates and incubated at 4° C. for 30 mins. After washing with FACS buffer, the plates were incubated with diluted Alex Fluor 488 conjugated goat anti-mouse IgG antibody for 30 mins at 4′C. After washing, the plates were analyzed by QuantAnalyzer 16.

Experiment [3] concerns the target T1, human MerTK expressed on cells. Put plainly: FACS on CHO-K1 cells overexpressing human MerTK, MFI (PE). As to the method: To evaluate the binding property to the antigen expressed on the cells, the chimeric monoclonal antibodies were analyzed for their binding to human MerTK overexpressed on CHO-K1 cells by FACS. Briefly, human MerTK overexpressing CHO-K1 (CHO-K1-MerTK) cells were firstly incubated with 5-fold serially diluted mAbs starting at 20 nM at 4° C. for 1 hour. After washing with FACS buffer, the PE conjugated anti-human IgG-Fc secondary antibody was added to each well and incubated at 4° C., for 30 mins. The mean fluorescence intensity (MFI) of PE were evaluated by QuantAnalyzer 16.

The target is the same in experiment [4]. Kind of experiment: FACS on SK-MEL-5 cells expressing human MerTK, geometric mean. As to the method:
as §1
This is another data set of the same source.

B1: 252H9D5 chimeric monoclonal antibody (antibody, V domains shown)
VH: QVTLRESGPGILQPSQTLSLTCSFSGFSLNTFGMGVGWIRQSSGKGLKWLAHIWWDDDKFYNPALKSRLTISKDTSKNQVFLKIANVDTTDTATYYCARIEGGLPYYYDYWGQGTPLIVSS
VL: DIVMTQSQKIMSTSVGDRISVTCKASQIVGTNVVWYQQKPGQSPKALIYSTSYRYSGVPDRFTGSRSGTDFTLTISNVQSEDLANYFCQQYNSYPFTFGSGTKLEIK
In experiment [1], B1 came in with a concentration for a half-maximal effect (EC50) of 53 pM and a Top of 4790 Geometric Mean. The same molecule showed an IC50 in experiment [2] of 824 pM.

B2: h13B4.v16 benchmark antibody (antibody, V domains shown)
VH: EVQLVESGEGLVQPGGSLRLSCAASGFSLSSYAMGWVRQAPGKGLEYVGIINSYGNTYYANWAKGRFTISRDNSKNTVYLQMGSLRAEDMAVYYCARDPGVSSNLWGRGTLVTVSS
VL: DIQMTQSPSTLSASVGDRVTITCQASQNIYSGLAWYQQKPGKAPKLLIYGASKLASGVPSRFSGSGSGTEFTLTISSLQPDDFATYYCQATYYSSNSVAFGGGTKVEIK
On to B2, for which the concentration giving a half-maximal response (EC50) in experiment [1] is 92 pM; in experiment [3], 160 pM; in experiment [4], 120 pM. Further, the Top is 4520 Geometric Mean in experiment [1], 4950 MFI (PE) in experiment [3] and 4530 Geometric Mean in experiment [4]. Also, the IC50 in experiment [2] amounted to 856 pM.
